Publication PMC12444478, “Structural insights into the substrate transport mechanism of the amino acid transporter complex” (The Journal of Biological Chemistry, 2025)

Molecular target: T1, 4F2hc (CD98hc, SLC3A2), isoform b (human, UniProt P08195-5 1-631)
T1 construct: Purified as a complex with m1 (LAT1); also called heavy chain; source: HEK293F, coexpressed with LAT1, purified (anti-FLAG resin, nickel-NTA, size-exclusion chromatography in GDN)
T1 sequence (looked up): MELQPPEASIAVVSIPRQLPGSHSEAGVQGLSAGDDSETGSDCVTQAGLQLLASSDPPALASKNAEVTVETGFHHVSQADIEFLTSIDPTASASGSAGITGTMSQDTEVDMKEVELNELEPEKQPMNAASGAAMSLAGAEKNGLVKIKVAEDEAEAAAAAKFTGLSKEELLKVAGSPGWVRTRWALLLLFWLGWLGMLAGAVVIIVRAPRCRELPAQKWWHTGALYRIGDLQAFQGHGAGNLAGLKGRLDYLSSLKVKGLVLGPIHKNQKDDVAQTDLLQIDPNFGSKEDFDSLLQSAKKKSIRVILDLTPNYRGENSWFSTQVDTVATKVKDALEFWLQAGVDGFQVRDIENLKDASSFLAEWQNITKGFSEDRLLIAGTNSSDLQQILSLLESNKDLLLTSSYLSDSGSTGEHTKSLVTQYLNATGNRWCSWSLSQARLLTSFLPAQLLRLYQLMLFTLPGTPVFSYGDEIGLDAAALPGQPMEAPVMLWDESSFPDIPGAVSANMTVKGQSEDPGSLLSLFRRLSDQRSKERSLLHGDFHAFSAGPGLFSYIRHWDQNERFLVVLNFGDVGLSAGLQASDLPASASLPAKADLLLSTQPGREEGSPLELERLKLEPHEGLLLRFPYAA
Assay: cryo-EM structure; LAT1-4F2hc coexpressed and purified as a complex in 25 mM Hepes pH 7.5, 150 mM NaCl, 0.01% GDN; incubated with 10 mM Leu, 1 mM Trp, 1 mM L-DOPA or 1 mM Tyr for 2 h; four structures
Details: both partners purified

binding result: binds
B1: L-type amino acid transporter 1 (LAT1, SLC7A5) (natural protein)
chain: not shown
notes: LAT1 (SLC7A5), human, full-length cDNA NM_003486.7 in pCAG vector; Purified as a complex with m2 (4F2hc); also called light chain; source: HEK293F, coexpressed with 4F2hc, purified (anti-FLAG resin, nickel-NTA, size-exclusion chromatography in GDN)
